Measurements from publication PMC5458677.

Target: His-tagged full-length Anisakis simplex macrophage migration inhibitory factor (As-MIF, 1-121) (Anisakis simplex)
Assay: SPR

Q: With “His-tagged human JAB1 (1-257) (from UniProt Q92905 1-257) (domain or fragment)” as the substance, how does the Kd read?
A: 16.6 nM
